Results taken from the supplement of paper PMC10724198.
± gives the standard deviation of the averaged measurements.

Tested on: Saccharomyces cerevisiae
Assay: protein stability index of tFT-peptide fusion (C-terminal peptide) (PSI (0-1 scale)); higher = more stable (slower turnover)
Details: genetic background: wild type; temperature: 30 C
Experimental: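 Multiplexed protein stability (MPS) profiling in S. cerevisiae. Random 12-aa peptides (tFT-X12 library) are fused to the C-terminus of a sfGFP-mCherry tandem fluorescent timer, after mCherry and a GGGS linker. Cells are FACS-sorted into 8 mCherry/sfGFP bins and deep-sequenced. The protein stability index (PSI) is the read-weighted bin average, scaled from 0 (unstable) to 1 (stable). Only peptides with >10 reads are reported; cells were grown at 30 °C in SC-His with glucose.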
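Also: PSI is a weighted mean of sequencing reads over stability bins, variants kept only with over 10 reads, mCherry proximal and sfGFP distal, peptide attached via GGGS linker.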

| Sequence | protein stability index |
| --- | --- |
| APPLPTHYCPHL | 0.841 ± 0.23 |
| TLSSPPPPPPPP | 0.663 ± 0.046 |
| TGIGPWVSPSIC | 0.667 ± 0.018 |
| AGVGVSSSLLPL | 0.664 ± 0.025 |
| NTNNKKNSKHSN | 0.661 ± 0.02 |
| SKPYNSAIKDIT | 0.725 ± 0.096 |
| RPVRYVLSGGCI | 0.68 ± 0.012 |
| DRPWAGGGLGVC | 0.621 ± 0.081 |
| RLHSLFVSCPTC | 0.703 ± 0.023 |
| PPPSPPPPPLLP | 0.6508 ± 0.0016 |
| ATHSMSYRGSTK | 0.662 ± 0.081 |
| GTEKRDSDKIIL | 0.68 ± 0.086 |
| DIVSGGLCVEVL | 0.643 ± 0.033 |
| EWVLRTLVDTNW | 0.728 ± 0.0075 |
| FAGGAVNIGVVG | 0.71 ± 0.015 |
| PWWGCTLGGGWG | 0.737 ± 0.063 |
| PPPSLPFPPPHP | 0.6827 ± 0.0029 |
| LALSRVALFSHS | 0.679 ± 0.042 |
| KNNKKQRNRTGE | 0.669 ± 0.017 |
| KEELKKRRQEAK | 0.677 ± 0.012 |
| VFVLEGSSTPRS | 0.6487 ± 0.0011 |
| KKHTLNENKMKE | 0.652 ± 0.011 |
| RKKRFENKKEKY | 0.731 ± 0.057 |
| APAVPITPPPFP | 0.696 ± 0.05 |
| EWVSGWIVRWWR | 0.679 ± 0.076 |

| Sequence | protein stability index |
| --- | --- |
| SPPPFLCSPFVA | 0.684 ± 0.024 |
| RTRPCNGPGRFG | 0.724 ± 0.057 |
| PSPPLLPPPLYT | 0.658 ± 0.014 |
| DCWAGWGLCGGG | 0.723 ± 0.042 |
| TPPPLRTASLLP | 0.67 ± 0.1 |
| GACPAFPYSVGR | 0.595 ± 0.018 |
| PSVPPLQPPHSV | 0.697 ± 0.031 |
| PVEGSTPPPGTT | 0.614 ± 0.032 |
| LLPSLFLLPPSA | 0.743 ± 0.094 |
| CRGWVRVAGLRA | 0.604 ± 0.085 |
| SLPLLPHLPASP | 0.698 ± 0.17 |
| VGTGPGLKRPCH | 0.774 ± 0.035 |
| VSDTRELSSDQI | 0.656 ± 0.02 |
| RIDHYIFYVNAV | 0.675 ± 0.017 |
| RLPQIHSDREQK | 0.746 ± 0.018 |
| NIKHTDKPNHIN | 0.609 ± 0.011 |
| PHPAPRRPPLPP | 0.687 ± 0.05 |
| EKKKKKKEEREK | 0.728 ± 0.16 |
| PPPTSPRSPVPI | 0.697 ± 0.021 |
| IKKYNEKRITKV | 0.66 ± 0.045 |
| VYTFGASKSMLG | 0.629 ± 0.035 |
| RLGGTMVVGTGG | 0.661 ± 0.041 |
| ALGPPAPGPCRA | 0.654 ± 0.021 |
| PLPRLPSSLSRP | 0.697 ± 0.023 |
| SCTDIGWIMRDI | 0.673 ± 0.061 |

| Sequence | protein stability index |
| --- | --- |
| LRPLPPPAPCKF | 0.774 ± 0.04 |
| VVRWFGGGGVRG | 0.719 ± 0.1 |
| SFPLPSPSPLLP | 0.712 ± 0.05 |
| LSPSSSLTYLSF | 0.724 ± 0.07 |
| APRPSPRPTPPS | 0.662 ± 0.078 |
| LMRGLYAIPGKF | 0.776 ± 0.019 |
| LPSPLPPPPPAH | 0.707 ± 0.0082 |
| FFITFGFSSGSR | 0.675 ± 0.068 |
| IALWLYALSLAF | 0.532 ± 0.016 |
| GGRPDQARPSRH | 0.741 ± 0.043 |
| LWDQFAVSCFGG | 0.745 ± 0.016 |
| LGTVPLLPPRSP | 0.713 ± 0.028 |
| GVQCLVFIGRPK | 0.69 ± 0.093 |
| LGGGGVGGVRGV | 0.6675 ± 0.0046 |
| SRHPPPPVSPHP | 0.727 ± 0.064 |
| LRPLPSPPPSLH | 0.603 ± 0.0066 |
| LKNKVDGKVSGK | 0.6014 ± 0.0045 |
| NRAVTRKRKEEK | 0.664 ± 0.03 |
| SSSWILCRFGRS | 0.664 ± 0.041 |
| VLPPLPGPPTLS | 0.6945 ± 0.0033 |
| KSKTRTKLYSRN | 0.6421 ± 0.0017 |
| VGYGRGGAVGVE | 0.695 ± 0.012 |
| HITMERTERTKY | 0.7145 ± 0.0057 |
| RYELSLRLYGSL | 0.623 ± 0.089 |
| IGGWWCGALLGD | 0.79 ± 0.074 |

| Sequence | protein stability index |
| --- | --- |
| GGASGGAGEGVG | 0.623 ± 0.063 |
| RSLGLVGRGFWG | 0.728 ± 0.086 |
| VRGVGLVDVVGL | 0.727 ± 0.12 |
| PARPLFAPSFFT | 0.699 ± 0.047 |
| GSVGSRIFLVHV | 0.602 ± 0.086 |
| QREGPEKRTHGR | 0.709 ± 0.038 |
| PIPRAASPLLPM | 0.588 ± 0.007 |
| GTSPGREFYWHK | 0.702 ± 0.033 |
| FAFPQASHPVRI | 0.664 ± 0.063 |
| PTPPPGLCTPRH | 0.702 ± 0.04 |
| PRKHSSRAINPI | 0.721 ± 0.06 |
| FCSVTLPSRSCV | 0.727 ± 0.098 |
| GREVRGLRVPGS | 0.653 ± 0.071 |
| RAPPRLHPPFPP | 0.676 ± 0.11 |
| MVLTVIHFDCDI | 0.596 ± 0.014 |
| IKNEEKKLIESQ | 0.76 ± 0.073 |
| LPRLPVSPLPLP | 0.681 ± 0.057 |
| PMVLLDTIQRHT | 0.721 ± 0.033 |
| ERARGGRGVGGN | 0.678 ± 0.033 |
| TQGLSSYYRHKI | 0.686 ± 0.061 |
| VLLAVGELFRVD | 0.649 ± 0.0084 |
| RLDVVGVPERTL | 0.762 ± 0.047 |
| PPPRPPPLPSPV | 0.616 ± 0.0093 |
